From the supplement of paper PMC9732359
± gives the uncertainty stated by the source.

Test: protein stability index of a GFP-peptide fusion (yeast GPS) (PSI 1-4); higher = more stable; sorted into four equal gates, so the index is relative within each strain
Outline: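 The protein stability index combines read frequencies across sorting gates, each weighted by its gate number and then summed. To obtain those frequencies, a pooled yeast library of GFP fusions to tiled 17-residue yeast protein peptides, on a plasmid also expressing Cherry, was grown to mid-log phase in leucine-free medium. The cells were sorted into four equal gates by GFP/Cherry ratio before plasmid amplification by PCR and Illumina sequencing.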

Sequence	protein stability index (doa10∆)	protein stability index (pdr5∆)	protein stability index (san1∆)	protein stability index (ubr1∆)
VCAKLFGNIQKVVNFWL [RPO21]	2.03 ± 0.098	1.93 ± 0.07	1.95 ± 0.11	1.78 ± 0.074
PNCPRPNMSICIFGDAF [RPL1A]	1.75 ± 0.083	1.55 ± 0.06	1.55 ± 0.2	1.53 ± 0.04
GNMCRGGRMFAPTKTWR [RPL4A]	2.92 ± 0.078	2.61 ± 0.12	3.04 ± 0.063	2.34 ± 0.053
LRKNKLGYARFILLDRL [SMC4]	1.15 ± 0.042	1.25 ± 0.048	1.14 ± 0.14	1.15 ± 0.055
GGSFGNREEFINKLVKA [RPL7B]	3.01 ± 0.22			2.93 ± 0.078
ALPDVVVKGLPDISRAV [RPO31]	2.85 ± 0.13	2.74 ± 0.079	2.86 ± 0.072	3.08 ± 0.12
NNSNTVASSTNFTSPTA [SWI1]	2.82 ± 0.039	2.67 ± 0.039	2.86 ± 0.041	2.71 ± 0.033
LEAPVKSIENPTQTKGN [YLR335W/NUP2]	3.04 ± 0.077	3.17 ± 0.055	3.15 ± 0.051	2.95 ± 0.058
LLCDKAQKNTQSYGGRP [PRE5]	3.17 ± 0.14	3.27 ± 0.095	3.37 ± 0.092	3.26 ± 0.077
EEKPDVTYSDVGGCKDQ [RPT1]	3.48 ± 0.16	3.65 ± 0.19	3.04 ± 0.23	3.41 ± 0.11
GDDVVNDVQGIDDVQTI [RPP1]	3.2 ± 0.15	3.46 ± 0.14	3.42 ± 0.067	3.18 ± 0.081
TQTGQNTGPSTGGLFGA [YGL172W/NUP49]	3.47 ± 0.11	3.34 ± 0.094	2.93 ± 0.14	3.52 ± 0.13
FDNFLTEEELQAAVPDN [BRN1]	2.93 ± 0.071	2.71 ± 0.071	2.54 ± 0.068	2.65 ± 0.051
IASDGSYVNYRHMALLV [RPO21]	1.68 ± 0.055	1.89 ± 0.051	1.35 ± 0.067	1.59 ± 0.038
EFEKKLQETLNKSTSSE [YIL149C/MLP2]	2.95 ± 0.12	2.66 ± 0.11	3.17 ± 0.14	3.27 ± 0.15
TKFQTTDRESYPRLQDP [YCS4]	3 ± 0.072	3.15 ± 0.055	3.13 ± 0.079	3.05 ± 0.074
SSSKQQSRLFINELVLE [SMC4]	3.02 ± 0.14	2.95 ± 0.1	2.58 ± 0.16	3.05 ± 0.085
NFETEWNLQTLAADDAF [RPB11]	2.68 ± 0.16	2.83 ± 0.13		2.54 ± 0.13
TRVNAQLESYEYMVQYI [RRI1]	3.2 ± 0.059	3.23 ± 0.073	3.42 ± 0.058	3.22 ± 0.076
MTDMQIQWYKSLLEKDI [ISW2]	1.84 ± 0.058	2.35 ± 0.062	1.74 ± 0.092	2.78 ± 0.061
ISLHENKLSGILADEMG [ISW2]	2.81 ± 0.085	2.16 ± 0.069	2.71 ± 0.084	2.44 ± 0.1
FKKSKIDHINEESWEKV [SCL1]	2.78 ± 0.062	3.05 ± 0.067	2.84 ± 0.049	2.69 ± 0.039
LRNLHMKRMVAQWERSK [SNF12]	2.88 ± 0.076	2.89 ± 0.1	2.89 ± 0.067	2.88 ± 0.086
CLENARSQISEKDAKIN [SIR4]	3.09 ± 0.078	3.23 ± 0.081	3.13 ± 0.066	2.98 ± 0.064
DLSLIVKARHGGCDYIF [CYT1]	2.74 ± 0.097	2.94 ± 0.1	2.72 ± 0.1	2.46 ± 0.061
SLELQSFQKIPLSRINE [YML103C/NUP188]	2.67 ± 0.12	2.82 ± 0.11	2.94 ± 0.07	2.88 ± 0.12

Sequence	protein stability index (doa10∆)	protein stability index (pdr5∆)	protein stability index (san1∆)	protein stability index (ubr1∆)
LILRDFLNNGEVDSASD [RPN3]	3.07 ± 0.19	2.89 ± 0.17	2.63 ± 0.23	3.2 ± 0.29
PYFEQKIQETELKIRSK [RPT6]	2.71 ± 0.12	2.84 ± 0.1	2.96 ± 0.13	3.04 ± 0.088
QDDDDYVDTATAKRKSR [IRR1]	2.83 ± 0.061	2.94 ± 0.054	2.15 ± 0.083	2.93 ± 0.039
QRKKQSDVLRFLQRVRV [RPL15A]	1.38 ± 0.16	2.26 ± 0.21	1.78 ± 0.26	1.56 ± 0.099
SIREQVHMYHKSLALLG [SNF5]	1.81 ± 0.041	1.74 ± 0.041	2.37 ± 0.095	2.06 ± 0.045
IFKDLVTVFLFMLILAL [COB]	1.45 ± 0.04	1.19 ± 0.033	1.12 ± 0.067	1.17 ± 0.025
VQVKVLGKYEFSKILPA [ESC2]	2.03 ± 0.15	1.99 ± 0.14		1.83 ± 0.19
VVLGVEKRATSPLLESD [PUP2]	2.98 ± 0.16	2.84 ± 0.13	3.15 ± 0.13	2.84 ± 0.11
ELQIFKTANSSSDAFEK [YIL149C/MLP2]	2.44 ± 0.049	2.73 ± 0.049	2.61 ± 0.061	2.75 ± 0.049
NIPKPLNSYHIKNGRIY [RGR1]	2.28 ± 0.04	2.18 ± 0.03	1.97 ± 0.047	2.14 ± 0.027
SSKPAFNLISNAGTEKE [YLR335W/NUP2]	3.13 ± 0.094	2.95 ± 0.098	3.13 ± 0.065	3.07 ± 0.061
GRPETYIWRYLPAPPVC [RPO31]	1.5 ± 0.18	1.57 ± 0.12	1.17 ± 0.16	2.02 ± 0.1
LKRYCCRRMILTHVDLI [RPB10]		1.54 ± 0.11		1.57 ± 0.12
FTIDAKPPISDSVFSFG [YLR335W/NUP2]	3.13 ± 0.054	2.75 ± 0.047	2.73 ± 0.051	2.69 ± 0.042
LTGTVVSTKMHRTIVIR [RPS11A]	2.06 ± 0.063	2.25 ± 0.046	2.14 ± 0.08	1.87 ± 0.037
ENSGKEMDEKSYEKNED [LIN1]	3.64 ± 0.28	3.29 ± 0.12	3.33 ± 0.14	3.16 ± 0.11
NRTFTDPPFRIEEQGWG [TAF14]	3.11 ± 0.067	3.24 ± 0.057	3.11 ± 0.1	3.07 ± 0.054
ENIQEGTSLTIQHIAAA [CDC53]	2.52 ± 0.091	3.11 ± 0.086	2.42 ± 0.099	2.91 ± 0.077
WGHPTRMLLNLCKSATT [BRR2]	1.47 ± 0.047	1.55 ± 0.046	1.75 ± 0.066	1.35 ± 0.046
KAHPNFPIALQWTGGRG [FAS1]	2.62 ± 0.13	2.64 ± 0.12	2.2 ± 0.096	2.01 ± 0.092
IKSGVAKLESLLENSVD [MTW1]	3.29 ± 0.098	3.4 ± 0.091	3.32 ± 0.055	3.4 ± 0.075
REILCYSKDAKEIYYTP [FAS2]	2.679 ± 0.024	2.821 ± 0.025	2.701 ± 0.025	2.71 ± 0.019
TPDASKPSFSFGVPNSS [YLR335W/NUP2]	2.92 ± 0.088	3.14 ± 0.086	3.07 ± 0.068	2.94 ± 0.072
IDWASPEYGRIIASASY [YGL100W/SEH1]	2.8 ± 0.064	3.16 ± 0.053	3.09 ± 0.054	2.71 ± 0.055
AIPNGIHLQRFDEGTTL [RPO21]	2.29 ± 0.064	1.89 ± 0.11		2.32 ± 0.062
LAVEDKPSPIDSGIGSN [CSL4]	3.02 ± 0.069	3.27 ± 0.062	3.06 ± 0.052	3.08 ± 0.044
